Values belong to the substance of their own block, whether it stands above or below them.
Legend:
[1] = target: human insulin receptor isoform B (IR-B) (human) (UniProt P06213)
[2] = target: Glu(A14)Des(B30)-Insulin (human)
[3] = target: Glu(A14)Ile(B25)Des(B30)-Insulin (human)
[4] = target: Glu(A14)Val(B16)Des(B30)-Insulin (human)
[5] = target: Glu(A14)Val(B16)Val(B25)Des(B30)-Insulin (human)
[6] = target: Glu(A14)Val(B25)Des(B30)-Insulin (human)
[7] = target: Human Insulin (wild-type) (human)
[8] = target: Val(B25)Des(B30)-Insulin (human)
[9] = target: human insulin receptor isoform B (IR-B) (human) (UniProt P06213); assay: SPA competition with [125I]-labelled human insulin, plasma membranes of CHO cells overexpressing the IR; 0 means below the detection limit
[10] = target: human insulin receptor isoform B (IR-B) (human) (UniProt P06213); assay: SPA competition with [125I]-labelled human insulin, plasma membranes of CHO cells overexpressing the IR
[11] = target: human insulin receptor isoform B (IR-B) (human) (UniProt P06213); assay: SPA competition with [125I]-labelled human insulin, plasma membranes of CHO cells overexpressing the IR; category B (<20%) as defined in paragraph 522
[12] = target: Glu(A14)Gly(A21)Trp(B25)Des(B30)-Insulin (human)
[13] = target: Glu(A14)His(B16)Des(B30)-Insulin (human)
[14] = target: Gly(A21)Trp(B16)His(B25)Des(B30)-Insulin (human)
[15] = target: Leu(B25)Des(B30)-Insulin (human)
Chain of Leu(B25)Des(B30)-Insulin (human) (chain, as listed by the source, chain 1 of 2): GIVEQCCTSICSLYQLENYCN
Chain of Leu(B25)Des(B30)-Insulin (human) (chain, as listed by the source, chain 2 of 2): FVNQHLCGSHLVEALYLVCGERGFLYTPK

Chain of purified pepsin (from porcine stomach mucosa) in simulated gastric fluid (P00791 60-385): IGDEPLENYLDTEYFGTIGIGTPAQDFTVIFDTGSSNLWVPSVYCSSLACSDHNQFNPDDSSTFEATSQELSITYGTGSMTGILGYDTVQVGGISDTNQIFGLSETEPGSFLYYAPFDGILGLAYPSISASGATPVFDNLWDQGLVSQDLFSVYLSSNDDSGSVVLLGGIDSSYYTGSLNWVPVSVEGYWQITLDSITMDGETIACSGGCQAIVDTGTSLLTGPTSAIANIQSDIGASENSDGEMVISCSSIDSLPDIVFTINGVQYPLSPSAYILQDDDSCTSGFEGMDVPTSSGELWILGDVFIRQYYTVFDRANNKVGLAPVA
Chain of Glu(A14)Val(B16)Ile(B25)Des(B30)-Insulin (ligand) (chain): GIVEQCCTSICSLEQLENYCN
Chain of Glu(A14)Val(B16)Ile(B25)Des(B30)-Insulin (ligand) (chain): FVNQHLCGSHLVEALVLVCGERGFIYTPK
Chain of Glu(A14)Ile(B16)Val(B25)Des(B30)-Insulin (ligand) (chain): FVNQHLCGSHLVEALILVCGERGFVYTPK
Chain of Glu(A14)Ile(B16)Des(B30)-Insulin (ligand) (chain): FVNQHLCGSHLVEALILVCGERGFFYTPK
Chain of Glu(A14)His(B16)Des(B30)-Insulin (ligand) (chain): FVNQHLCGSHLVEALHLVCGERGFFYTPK
Chain of Glu(A14)Glu(B3)Val(B16)Des(B30)-Insulin (ligand) (chain): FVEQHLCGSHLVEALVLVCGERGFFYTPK
Chain of Glu(A14)Leu(B16)Ala(B25)Des(B30)-Insulin (ligand) (chain): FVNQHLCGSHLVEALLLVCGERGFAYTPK
Chain of Glu(A14)Val(B16)Val(B25)Des(B30)-Insulin (ligand) (chain): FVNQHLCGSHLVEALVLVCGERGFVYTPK
Chain of Glu(A14)His(B16)His(B25)Des(B30)-Insulin (ligand) (chain): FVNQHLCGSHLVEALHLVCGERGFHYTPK
Chain of Glu(A14)Glu(B16)His(B25)Des(B30)-Insulin (ligand) (chain): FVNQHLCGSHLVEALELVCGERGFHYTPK
Chain of Glu(A14)Glu(B3)Ile(B16)Ile(B25)Des(B30)-Insulin (ligand) (chain): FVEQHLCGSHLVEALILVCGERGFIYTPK
Chain of Glu(A14)Glu(B3)Val(B16)Val(B25)Des(B30)-Insulin (ligand) (chain): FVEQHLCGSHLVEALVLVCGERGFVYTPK
Chain of Gly(A21)Trp(B16)Des(B30)-Insulin (ligand) (chain): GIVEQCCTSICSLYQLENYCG
Chain of Gly(A21)Trp(B16)Des(B30)-Insulin (ligand) (chain): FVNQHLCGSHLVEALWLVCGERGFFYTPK
Chain of Gly(A21)Trp(B16)Trp(B25)Des(B30)-Insulin (ligand) (chain): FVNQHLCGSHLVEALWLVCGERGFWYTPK
Chain of Gly(A21)Trp(B16)His(B25)Des(B30)-Insulin (ligand) (chain): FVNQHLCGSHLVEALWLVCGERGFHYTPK
Chain of Glu(A14)Gly(A21)Glu(B3)Val(B25)Des(B30)-Insulin (ligand) (chain): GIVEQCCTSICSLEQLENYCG
Chain of Glu(A14)Gly(A21)Glu(B3)Val(B25)Des(B30)-Insulin (ligand) (chain): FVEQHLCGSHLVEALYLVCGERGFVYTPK
Chain of Glu(A14)Gly(A21)Glu(B3)Val(B16)Trp(B25)Des(B30)-Insulin (ligand) (chain): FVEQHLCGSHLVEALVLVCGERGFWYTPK
Chain of Glu(A14)Gly(A21)Glu(B3)Ile(B16)Val(B25)Des(B30)-Insulin (ligand) (chain): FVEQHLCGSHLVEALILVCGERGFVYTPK
Chain of Glu(A14)Gly(A21)Val(B16)Trp(B25)Des(B30)-Insulin (ligand) (chain): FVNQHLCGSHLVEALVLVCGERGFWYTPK
Chain of Glu(A14)Gly(A21)Glu(B3)Ile(B16)Trp(B25)Des(B30)-Insulin (ligand) (chain): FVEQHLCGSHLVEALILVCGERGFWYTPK
Chain of Glu(A14)Val(B16)Des(B30)-Insulin (ligand) (chain): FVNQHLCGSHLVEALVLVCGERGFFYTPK
Chain of Glu(A14)His(B16)Ala(B25)Des(B30)-Insulin (ligand) (chain): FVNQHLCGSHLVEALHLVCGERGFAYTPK
Chain of Glu(A14)Gly(A21)Trp(B25)Des(B30)-Insulin (human) (chain, as listed by the source, chain 2 of 2): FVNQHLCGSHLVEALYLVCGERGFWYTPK
Chain of Ala(B25)Des(B30)-Insulin (ligand) (chain): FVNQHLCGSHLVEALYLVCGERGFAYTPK

autophosphorylation activity relative to human insulin (relative to human insulin) [1]: 0.17
Substance: Ala(B25)Des(B30)-Insulin (ligand)

percent remaining insulin analog after 30 minutes with Cathepsin D (Ala(B25)-Insulin (human)): 52%
percent remaining insulin analog after 30 minutes with Cathepsin D [2]: 0%
percent remaining insulin analog after 30 minutes with Cathepsin D [3]: 20%
percent remaining insulin analog after 30 minutes with Cathepsin D [4]: 0%
percent remaining insulin analog after 30 minutes with Cathepsin D [5]: 62%
percent remaining insulin analog after 30 minutes with Cathepsin D [6]: 59%
percent remaining insulin after 30 minutes with Cathepsin D [7]: 0%
percent remaining insulin analog after 30 minutes with Cathepsin D [8]: 43%
Substance: Cathepsin D (enzyme)

autophosphorylation activity relative to human insulin (relative to human insulin) [1]: 0.01
Insulin-receptor binding affinity relative to human insulin (relative to human insulin) [9]: 0
Substance: Glu(A14)Glu(B3)Ile(B16)Ile(B25)Des(B30)-Insulin (ligand)

autophosphorylation activity relative to human insulin (relative to human insulin) [1]: 0.28
Insulin-receptor binding affinity relative to human insulin (relative to human insulin) [10]: 0.4
Substance: Glu(A14)Glu(B3)Val(B16)Des(B30)-Insulin (ligand)

autophosphorylation activity relative to human insulin (relative to human insulin) [1]: 0.02
Insulin-receptor binding affinity relative to human insulin (relative to human insulin) [9]: 0
Substance: Glu(A14)Glu(B3)Val(B16)Val(B25)Des(B30)-Insulin (ligand)

autophosphorylation activity relative to human insulin (relative to human insulin) [1]: 0.07
Insulin-receptor binding affinity relative to human insulin (relative to human insulin) [10]: 0.01
Substance: Glu(A14)Glu(B16)His(B25)Des(B30)-Insulin (ligand)

autophosphorylation activity relative to human insulin (relative to human insulin) [1]: 0.13
Insulin-receptor binding affinity relative to human insulin (relative to human insulin) [10]: 0.12
Substance: Glu(A14)Gly(A21)Glu(B3)Ile(B16)Trp(B25)Des(B30)-Insulin (ligand)

autophosphorylation activity relative to human insulin (relative to human insulin) [1]: 0.02
Insulin-receptor binding affinity relative to human insulin (relative to human insulin) [10]: 0.01
Substance: Glu(A14)Gly(A21)Glu(B3)Ile(B16)Val(B25)Des(B30)-Insulin (ligand)

autophosphorylation activity relative to human insulin (relative to human insulin) [1]: 0.19
Insulin-receptor binding affinity relative to human insulin (relative to human insulin) [10]: 0.21
Substance: Glu(A14)Gly(A21)Glu(B3)Val(B16)Trp(B25)Des(B30)-Insulin (ligand)

autophosphorylation activity relative to human insulin (relative to human insulin) [1]: 0.01
Insulin-receptor binding affinity relative to human insulin (relative to human insulin) [10]: 0.01
Substance: Glu(A14)Gly(A21)Glu(B3)Val(B16)Val(B25)Des(B30)-Insulin (ligand)

autophosphorylation activity relative to human insulin (relative to human insulin) [1]: 0.03
Insulin-receptor binding affinity relative to human insulin (relative to human insulin) [10]: 0.02
Substance: Glu(A14)Gly(A21)Glu(B3)Val(B25)Des(B30)-Insulin (ligand)

autophosphorylation activity relative to human insulin (relative to human insulin) [1]: 0.38
Insulin-receptor binding affinity relative to human insulin (relative to human insulin) [10]: 0.63
Substance: Glu(A14)Gly(A21)Trp(B16)Des(B30)-Insulin (ligand)

autophosphorylation activity relative to human insulin (relative to human insulin) [1]: 0.23
Insulin-receptor binding affinity relative to human insulin (relative to human insulin) [10]: 0.17
Substance: Glu(A14)Gly(A21)Val(B16)Trp(B25)Des(B30)-Insulin (ligand)

autophosphorylation activity relative to human insulin (relative to human insulin) [1]: 0.11
Substance: Glu(A14)His(B16)Ala(B25)Des(B30)-Insulin (ligand)

autophosphorylation activity relative to human insulin (relative to human insulin) [1]: 0.29
Insulin-receptor binding affinity relative to human insulin (relative to human insulin) [10]: 0.36
Substance: Glu(A14)His(B16)Des(B30)-Insulin (ligand)

autophosphorylation activity relative to human insulin (relative to human insulin) [1]: 0.11
Insulin-receptor binding affinity relative to human insulin (relative to human insulin) [10]: 0.12
Substance: Glu(A14)His(B16)His(B25)Des(B30)-Insulin (ligand)

Insulin receptor B binding affinity relative to human insulin [11]: < 20%
Substance: Glu(A14)His(B16)His(B25)[16-[4-[[5-[2-[2-[2-[2-[2-(carboxymethyloxy)ethoxy]ethylamino]-2-oxoethoxy]ethoxy]-ethylcarbamoyl]pyrimidin-2-yl]sulfamoyl]phenoxy]hexadecanoic acid]Lys(B29)Des(B30)-insulin (ligand)

autophosphorylation activity relative to human insulin (relative to human insulin) [1]: 0.18
Insulin-receptor binding affinity relative to human insulin (relative to human insulin) [10]: 0.23
Substance: Glu(A14)Ile(B16)Des(B30)-Insulin (ligand)

autophosphorylation activity relative to human insulin (relative to human insulin) [1]: 0.04
Insulin-receptor binding affinity relative to human insulin (relative to human insulin) [9]: 0
Substance: Glu(A14)Ile(B16)Val(B25)Des(B30)-Insulin (ligand)

autophosphorylation activity relative to human insulin (relative to human insulin) [1]: 0.04
Insulin-receptor binding affinity relative to human insulin (relative to human insulin) [10]: 0.01
Substance: Glu(A14)Leu(B16)Ala(B25)Des(B30)-Insulin (ligand)

autophosphorylation activity relative to human insulin (relative to human insulin) [1]: 0.32
Substance: Glu(A14)Val(B16)Des(B30)-Insulin (ligand)

autophosphorylation activity relative to human insulin (relative to human insulin) [1]: 0.01
Insulin-receptor binding affinity relative to human insulin (relative to human insulin) [9]: 0
Substance: Glu(A14)Val(B16)Ile(B25)Des(B30)-Insulin (ligand)

autophosphorylation activity relative to human insulin (relative to human insulin) [1]: 0.03
Insulin-receptor binding affinity relative to human insulin (relative to human insulin) [9]: 0
Substance: Glu(A14)Val(B16)Val(B25)Des(B30)-Insulin (ligand)

autophosphorylation activity relative to human insulin (relative to human insulin) [1]: 0.4
Insulin-receptor binding affinity relative to human insulin (relative to human insulin) [10]: 0.57
Substance: Gly(A21)Trp(B16)Des(B30)-Insulin (ligand)

autophosphorylation activity relative to human insulin (relative to human insulin) [1]: 0.35
Insulin-receptor binding affinity relative to human insulin (relative to human insulin) [10]: 0.4
Substance: Gly(A21)Trp(B16)His(B25)Des(B30)-Insulin (ligand)

autophosphorylation activity relative to human insulin (relative to human insulin) [1]: 0.38
Insulin-receptor binding affinity relative to human insulin (relative to human insulin) [10]: 0.43
Substance: Gly(A21)Trp(B16)Trp(B25)Des(B30)-Insulin (ligand)

Insulin receptor B binding affinity relative to human insulin [11]: < 20%
Substance: Insulin analog 41 (Glu(A14)His(B16)His(B25)Des(B30)-insulin) (ligand)

autophosphorylation activity relative to human insulin (relative to human insulin) [1]: 0.32
Substance: Val(B16)Des(B30)-Insulin (ligand)

percent remaining insulin analog after 30 minutes with insulin degrading enzyme, IDE (Ala(B25)-Insulin (human)): 2%
percent remaining insulin analog after 30 minutes with insulin degrading enzyme, IDE [2]: 81%
percent remaining insulin analog after 30 minutes with insulin degrading enzyme, IDE [12]: 80%
percent remaining insulin analog after 30 minutes with insulin degrading enzyme, IDE [13]: 88%
percent remaining insulin analog after 30 minutes with insulin degrading enzyme, IDE [3]: 77%
percent remaining insulin analog after 30 minutes with insulin degrading enzyme, IDE [4]: 98%
percent remaining insulin analog after 30 minutes with insulin degrading enzyme, IDE [5]: 86%
percent remaining insulin analog after 30 minutes with insulin degrading enzyme, IDE [6]: 86%
percent remaining insulin analog after 30 minutes with insulin degrading enzyme, IDE [14]: 41%
percent remaining insulin after 30 minutes with insulin degrading enzyme, IDE [7]: 38%
percent remaining insulin analog after 30 minutes with insulin degrading enzyme, IDE [15]: 12%
percent remaining insulin analog after 30 minutes with insulin degrading enzyme, IDE [8]: 11%
Substance: insulin degrading enzyme (IDE)

percent remaining insulin analog after 30 minutes in gastric fluid (Ala(B25)-Insulin (human)): 30%
percent remaining insulin analog after 30 minutes in gastric fluid [2]: 0%
percent remaining insulin analog after 30 minutes in gastric fluid [3]: 52%
percent remaining insulin analog after 30 minutes in gastric fluid [4]: 0%
percent remaining insulin analog after 30 minutes in gastric fluid [5]: 36%
percent remaining insulin analog after 30 minutes in gastric fluid [6]: 52%
percent remaining insulin after 30 minutes in gastric fluid [7]: 0%
percent remaining insulin analog after 30 minutes in gastric fluid [8]: 44%
Substance: purified pepsin (from porcine stomach mucosa) in simulated gastric fluid (from UniProt P00791) (enzyme)

percent remaining insulin analog after 120 minutes with α-Chymotrypsin (Ala(B25)-Insulin (human)): 58%
percent remaining insulin analog after 120 minutes with α-Chymotrypsin [2]: 35%
percent remaining insulin analog after 120 minutes with α-Chymotrypsin [3]: 99%
percent remaining insulin analog after 120 minutes with α-Chymotrypsin [4]: 30%
percent remaining insulin analog after 120 minutes with α-Chymotrypsin [5]: 34%
percent remaining insulin analog after 120 minutes with α-Chymotrypsin [6]: 40%
percent remaining insulin after 120 minutes with α-Chymotrypsin [7]: 5%
percent remaining insulin analog after 120 minutes with α-Chymotrypsin [8]: 31%
Substance: α-Chymotrypsin (enzyme)

— US20200181223A1
